Bridge positions count the residues as written; N and C are the ends. Square brackets hold non-standard residues; d marks the D form. Ends that are not written are not given here.

B1: SEQ ID NO 171 (peptide)
peptide: QWTCSGDE[dY]TWHCNYE
modifications: disulfide 4-13 (inferred); not fully specified (N-terminus); printed as QWTCSGDEyTWHCNYE
notes: cyclic, disulfide
B2: SEQ ID NO 169 (peptide)
peptide: QWTCSG[dD]EYTWHCNYE
modifications: disulfide 4-13 (inferred); not fully specified (N-terminus); printed as QWTCSGdEYTWHCNYE
notes: cyclic, disulfide

In the assay the target is T1, human collagen type I, acid soluble, extracted from placenta (Sigma C7774) (human, UniProt P02452 162-1218; P08123 80-1119).
T1 construct: tissue extract, gelled and dried in wells; also called dried human collagen; h-Collagen
T1 sequence (P02452 162-1218 limits assumed, chain 1 of 2): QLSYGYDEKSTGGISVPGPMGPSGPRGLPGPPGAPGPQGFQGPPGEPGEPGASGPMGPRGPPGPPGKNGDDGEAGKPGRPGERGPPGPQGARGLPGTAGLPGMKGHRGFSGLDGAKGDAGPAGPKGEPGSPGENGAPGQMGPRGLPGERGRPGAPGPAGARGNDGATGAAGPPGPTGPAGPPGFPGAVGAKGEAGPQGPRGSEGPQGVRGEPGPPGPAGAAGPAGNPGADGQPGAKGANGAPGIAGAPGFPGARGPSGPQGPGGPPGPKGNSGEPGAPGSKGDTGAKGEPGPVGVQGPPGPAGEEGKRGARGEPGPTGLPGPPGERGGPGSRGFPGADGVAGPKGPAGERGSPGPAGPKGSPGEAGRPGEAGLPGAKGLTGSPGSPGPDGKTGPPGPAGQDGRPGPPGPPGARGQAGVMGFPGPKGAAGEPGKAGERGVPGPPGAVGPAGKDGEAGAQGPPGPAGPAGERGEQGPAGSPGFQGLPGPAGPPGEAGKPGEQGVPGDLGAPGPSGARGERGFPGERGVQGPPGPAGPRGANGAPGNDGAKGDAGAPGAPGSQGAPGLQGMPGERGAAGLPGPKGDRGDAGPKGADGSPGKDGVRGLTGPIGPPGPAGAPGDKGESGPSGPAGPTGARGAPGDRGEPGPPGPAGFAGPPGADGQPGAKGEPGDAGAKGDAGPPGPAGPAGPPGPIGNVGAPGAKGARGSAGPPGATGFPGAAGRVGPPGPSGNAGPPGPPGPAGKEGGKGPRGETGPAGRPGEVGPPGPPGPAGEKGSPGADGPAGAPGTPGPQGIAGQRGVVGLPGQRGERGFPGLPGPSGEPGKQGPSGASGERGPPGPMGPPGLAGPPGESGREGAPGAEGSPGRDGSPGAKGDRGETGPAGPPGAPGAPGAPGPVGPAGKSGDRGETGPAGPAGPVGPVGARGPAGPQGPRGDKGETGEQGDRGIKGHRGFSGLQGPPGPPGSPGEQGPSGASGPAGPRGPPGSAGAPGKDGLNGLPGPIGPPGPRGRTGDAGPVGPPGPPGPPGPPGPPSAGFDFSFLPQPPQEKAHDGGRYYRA
T1 sequence (P08123 80-1119 limits assumed, chain 2 of 2): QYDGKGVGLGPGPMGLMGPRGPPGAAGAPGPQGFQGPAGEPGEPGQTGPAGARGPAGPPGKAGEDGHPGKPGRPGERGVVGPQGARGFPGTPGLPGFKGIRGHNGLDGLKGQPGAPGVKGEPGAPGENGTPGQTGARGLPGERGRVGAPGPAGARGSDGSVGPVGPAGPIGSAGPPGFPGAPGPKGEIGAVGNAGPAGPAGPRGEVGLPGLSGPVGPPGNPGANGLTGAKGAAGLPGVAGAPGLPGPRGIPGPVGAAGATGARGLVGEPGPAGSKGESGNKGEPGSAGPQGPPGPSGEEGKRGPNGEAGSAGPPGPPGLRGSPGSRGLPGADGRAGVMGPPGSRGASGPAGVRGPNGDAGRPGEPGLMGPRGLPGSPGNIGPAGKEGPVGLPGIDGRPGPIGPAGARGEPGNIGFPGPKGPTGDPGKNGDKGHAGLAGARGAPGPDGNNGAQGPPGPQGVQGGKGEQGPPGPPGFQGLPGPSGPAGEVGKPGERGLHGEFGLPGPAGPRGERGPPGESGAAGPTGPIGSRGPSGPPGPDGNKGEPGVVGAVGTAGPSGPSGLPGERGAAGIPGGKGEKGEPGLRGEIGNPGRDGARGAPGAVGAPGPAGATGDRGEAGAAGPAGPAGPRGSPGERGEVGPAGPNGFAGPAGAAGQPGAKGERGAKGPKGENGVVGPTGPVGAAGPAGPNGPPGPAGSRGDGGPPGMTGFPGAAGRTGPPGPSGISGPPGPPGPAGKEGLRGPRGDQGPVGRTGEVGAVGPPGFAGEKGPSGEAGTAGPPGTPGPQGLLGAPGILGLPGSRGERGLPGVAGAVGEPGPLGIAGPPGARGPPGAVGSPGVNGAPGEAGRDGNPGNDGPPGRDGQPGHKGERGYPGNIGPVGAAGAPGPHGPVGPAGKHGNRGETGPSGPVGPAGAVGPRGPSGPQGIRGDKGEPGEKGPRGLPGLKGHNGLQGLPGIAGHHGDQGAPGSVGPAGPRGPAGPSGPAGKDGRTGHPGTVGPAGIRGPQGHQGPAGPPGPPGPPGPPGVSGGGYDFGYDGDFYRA
The assay can be described thus: dried collagen assay. The method, then:
An additional 90 μL is reserved in a HPLC glass vial as a measure of the total concentration.
For the molecule DWECHGNEFEWNCLMR (disulfide 4-13 (inferred), cyclic, disulfide) [SEQ ID NO 22], the “% bound” value was 55%.

As for SWHCFGDNENWMCNLR (disulfide 4-13 (inferred), cyclic, disulfide) [SEQ ID NO 27], the “% bound” value was found to be 24%.

Turning to PLVCHPPYSGSCSLH (disulfide 4-12 (inferred), cyclic, disulfide) [SEQ ID NO 11], the “% bound” value was determined as 9%.

Take AWDCSGNIPTWYCRRL (disulfide 4-13 (inferred), cyclic, disulfide) [SEQ ID NO 23]: the “% bound” value stood at 44%.

Take PWTCRMTENTWVCDLN (disulfide 4-13 (inferred), cyclic, disulfide) [SEQ ID NO 47]: the “% bound” value was 22%.

As to GWFCKLVDGNWECSTK (disulfide 4-13 (inferred), cyclic, disulfide) [SEQ ID NO 53], the “% bound” value is 12%.

As to GWVCMMRETDWNCSI (disulfide 4-13 (inferred), cyclic, disulfide) [SEQ ID NO 58], the “% bound” value was found to be 10%.

Turning to AWFCSQKNRLWSCGET (disulfide 4-13 (inferred), cyclic, disulfide) [SEQ ID NO 49], the “% bound” value stood at 19%.

Regarding RWTCDLQRGDWQCSTI (disulfide 4-13 (inferred), cyclic, disulfide) [SEQ ID NO 57], the “% bound” value is 11%.

For IWLCTGGAATWNCKFD (disulfide 4-13 (inferred), cyclic, disulfide) [SEQ ID NO 25], the “% bound” value stood at 39%.

With HWQCRLTDYGWNCDER (disulfide 4-13 (inferred), cyclic, disulfide) [SEQ ID NO 59], the “% bound” value turned out to be 10%.

Regarding KWFCELMQDQWQCGSK (disulfide 4-13 (inferred), cyclic, disulfide) [SEQ ID NO 50], the “% bound” value was determined as 18%.

In the case of KWFCELMHDQWQCGSK (disulfide 4-13 (inferred), cyclic, disulfide) [SEQ ID NO 51], the “% bound” value is 18%.

For the molecule VWACRGGTTNWHCDL (disulfide 4-13 (inferred), cyclic, disulfide) [SEQ ID NO 41], the “% bound” value was 1%.

Turning to KWSCYMVDHQWYCREF (disulfide 4-13 (inferred), cyclic, disulfide) [SEQ ID NO 61], the “% bound” value came to 9%.

As to DWTCSGDEYTWHCNYE (disulfide 4-13 (inferred), cyclic, disulfide) [SEQ ID NO 17], the “% bound” value stood at 78%.

For the molecule DWTCSGDEYYWHCNYE (disulfide 4-13 (inferred); not fully specified (C-terminus), cyclic, disulfide) [SEQ ID NO 16], the “% bound” value worked out at 83%.

As for B1, the “% bound” value was determined as 13%.

In the case of DWTCSGDEYTWYCNYE (disulfide 4-13 (inferred), cyclic, disulfide) [SEQ ID NO 18], the “% bound” value came out at 78%.

As for GQWTCSADEYTWHCNYE (disulfide 5-14 (inferred), cyclic, disulfide) [SEQ ID NO 142], the “% bound” value worked out at 9%.

For DWTCSGDEYRWHCNYE (disulfide 4-13 (inferred), cyclic, disulfide) [SEQ ID NO 19], the “% bound” value came out at 70%.

For the molecule B2, the “% bound” value was found to be 11%.

With DWTCYGDEYTWHCNYE (disulfide 4-13 (inferred); not fully specified (C-terminus), cyclic, disulfide) [SEQ ID NO 15], the “% bound” value is 83%.

As to DWTCRGDEYTWHCNYE (disulfide 4-13 (inferred), cyclic, disulfide) [SEQ ID NO 14], the “% bound” value was found to be 83%.

As to HWSCYLGDNGWNCHDR (disulfide 4-13 (inferred), cyclic, disulfide) [SEQ ID NO 62], the “% bound” value is 9%.

Regarding LTVCHPPYYGRCNFV (disulfide 4-12 (inferred), cyclic, disulfide) [SEQ ID NO 10], the “% bound” value turned out to be 9%.

Take AWSCWIVEGRWNCSDI (disulfide 4-13 (inferred), cyclic, disulfide) [SEQ ID NO 48]: the “% bound” value stood at 22%.

On to SWNCHMIRNEWRCTGH (disulfide 4-13 (inferred), cyclic, disulfide) [SEQ ID NO 56], for which the “% bound” value is 11%.

In the case of GWVCGGDHTTWECHLQ (disulfide 4-13 (inferred), cyclic, disulfide) [SEQ ID NO 31], the “% bound” value amounted to 15%.

Take EWLCVGDSLKWYCKHS (disulfide 4-13 (inferred), cyclic, disulfide) [SEQ ID NO 24]: the “% bound” value is 43%.

MWDCTGNSAEWRCEMQ (disulfide 4-13 (inferred), cyclic, disulfide) [SEQ ID NO 34]: the “% bound” value came out at 11%.

AWTCVGGEKTWGCVWN (disulfide 4-13 (inferred), cyclic, disulfide) [SEQ ID NO 33]: the “% bound” value worked out at 12%.

For YWVCGGDHQSWHCSHP (disulfide 4-13 (inferred), cyclic, disulfide) [SEQ ID NO 35], the “% bound” value is 8%.

Consider EWHCVLNDFRWTCGGD (disulfide 4-13 (inferred), cyclic, disulfide) [SEQ ID NO 60], for which the “% bound” value was 10%.

As to PMICHAPYVGKCNFL (disulfide 4-12 (inferred), cyclic, disulfide) [SEQ ID NO 12], the “% bound” value is 7%.

On to EWRCRGDSSSWLCDYT (disulfide 4-13 (inferred), cyclic, disulfide) [SEQ ID NO 40], for which the “% bound” value was found to be 3%.

As to MWNCTMTKSGWRCFEK (disulfide 4-13 (inferred), cyclic, disulfide) [SEQ ID NO 54], the “% bound” value came out at 12%.

With DWTCVGDHKTWKCNFH (disulfide 4-13 (inferred), cyclic, disulfide) [SEQ ID NO 21], the “% bound” value was determined as 57%.

Take GWNCYEYDSQWICDHL (disulfide 4-13 (inferred), cyclic, disulfide) [SEQ ID NO 44]: the “% bound” value came out at 28%.

As to RWSCWLDENGWKCDGT (disulfide 4-13 (inferred), cyclic, disulfide) [SEQ ID NO 52], the “% bound” value stood at 15%.

GWVCLQKGPKWVCDWD (disulfide 4-13 (inferred), cyclic, disulfide) [SEQ ID NO 46]: the “% bound” value turned out to be 23%.

Take EWQCTQYANQWNCKYN (disulfide 4-13 (inferred), cyclic, disulfide) [SEQ ID NO 45]: the “% bound” value is 25%.

Take WRCDGDAHDWHCDWF (disulfide 3-12 (inferred), cyclic, disulfide) [SEQ ID NO 26]: the “% bound” value worked out at 25%.

For the molecule SWICTGDNIDWNCRFA (disulfide 4-13 (inferred), cyclic, disulfide) [SEQ ID NO 28], the “% bound” value is 20%.

As to PWQCYSDKTSWVCNLY (disulfide 4-13 (inferred), cyclic, disulfide) [SEQ ID NO 43], the “% bound” value amounted to 30%.

In the case of PWYCSGDHLDWKCIYQ (disulfide 4-13 (inferred), cyclic, disulfide) [SEQ ID NO 20], the “% bound” value amounted to 64%.

Regarding GWDCQGTDNIWECVRK (disulfide 4-13 (inferred), cyclic, disulfide) [SEQ ID NO 30], the “% bound” value turned out to be 16%.

Regarding TWRCDQFKGKWVCRGG (disulfide 4-13 (inferred), cyclic, disulfide) [SEQ ID NO 42], the “% bound” value turned out to be 40%.

Consider DWICHGDFDTWKCDLQ (disulfide 4-13 (inferred), cyclic, disulfide) [SEQ ID NO 29], for which the “% bound” value was 16%.

As to SWNCHWRNQGWLCSGG (disulfide 4-13 (inferred), cyclic, disulfide) [SEQ ID NO 55], the “% bound” value is 12%.

Regarding NWVCSGDHADWSCALI (disulfide 4-13 (inferred), cyclic, disulfide) [SEQ ID NO 32], the “% bound” value was determined as 12%.

The values are drawn from US20080044360A1 (COLLAGEN MEDICAL, published 2008).
